Laboratory results from patent publication EP3632934A1 (F. Hoffmann-La Roche AG, dated 2020).

Molecular target: T1, human OX40 (Sino Biological Inc) (human, UniProt P43489 29-216)
T1 construct: Bought soluble protein used as SPR analyte; also called huOX40
T1 sequence: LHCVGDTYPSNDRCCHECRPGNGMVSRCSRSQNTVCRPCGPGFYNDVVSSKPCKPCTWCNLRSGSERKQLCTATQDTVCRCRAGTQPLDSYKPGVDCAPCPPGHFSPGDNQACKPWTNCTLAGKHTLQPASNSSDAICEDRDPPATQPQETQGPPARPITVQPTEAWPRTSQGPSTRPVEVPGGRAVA
Assay: SPR, Biacore; against parent 1A7.gr.1

B1: 1A7.gr.SGDS (antibody, V domains shown)
VH: EVQLVQSGAEVKKPGASVKVSCKASGYTFTDSYMSWVRQAPGQGLEWIGDMYPDSGDSSYNQKFRERVTITRDTSTSTAYLELSSLRSEDTAVYYCVLAPRWYFSVWGQGTLVTVSS
VL: DIQMTQSPSSLSASVGDRVTITCRASQDISNYLNWYQQKPGKAPKLLIYYTSRLRSGVPSRFSGSGSGTDFTLTISSLQPEDFATYYCQQGHTLPPTFGQGTKVEIK
For B1, which “fold loss of binding affinity against 1A7.gr.1” value is on record?
Its value is 2 fold.
